Where a chain is given by its changes, count along the chain named. Names may count otherwise.
B1: IGF-I E3A on phage (G1S-A70V background, gene III fusion) (ligand)
chain: SPATLCGAELVDALQFVCGDRGFYFNKPTGYGSSSRRAPQTGIVDECCFRSCDLRRLEMYCAPLKPAKSV
notes: monovalent on M13 phage; not shown: M13 gene III fragment (residues 249-406) and the junction after residue 70
B2: human IGFBP-1 (other, UniProt P08833 26-259, looked up)
chain: APWQCAPCSAEKLALCPPVSASCSEVTRSAGCGCCPMCALPLGAACGVATARCARGLSCRALPGEQQPLHALTRGQGACVQESDASAPHAAEAGSPESPESTEITEEELLDNFHLMAPSEEDHSILWDAISTYDGSKALHVTNIKKWKEPCRIELYRVVESLAKAQETSGEEISKFYLPNCNKNGFYHSRQCETSMDGEAGLCWCVYPWNGKRIPGSPEIRGDPNCQIYFNVQN
notes: mature

Tests used:
human IGFBP-1 = target: B2; test: competitive phage ELISA
Method: (§1) Phage particles were harvested and resuspended in PBS buffer as described in Lowman, H. B., "Phage Display of Peptide Libraries on Protein Scaffolds," in Cabilly, S. (ed.), *Combinatorial Peptide Library Protocols* (Humana Press Inc.: Totowa, N.J., 1998), pp. 249–264. Then phage concentrations were normalized to yield a maximal ELISA signal of 0.2–0.4 for each mutant (Lowman, in Cabilly, S. (ed.), supra). Threefold serial dilutions of soluble competitor were prepared on non-absorbent microtiter plates (Nunc, F, 96 wells) with binding buffer (0.5% TWEEN™ 20/PBS) containing phage at the previously-determined concentrations. […] After blocking, the plates containing immobilized target were washed with 0.05% TWEEN™/PBS buffer and subsequently incubated with 80 μl/well of the premixed phage-competitor solutions for 1 hour at room temperature. […] Numbers in Table I represent mean±standard deviation of individually assessed $IC50$ values.
(§2) At least two different clones of every mutant were tested.

[1] = target: T1, recombinant human IGFBP-3 (human, UniProt P17936 28-291); test: competitive phage ELISA
T1 construct: mature
T1 sequence (P17936 28-291): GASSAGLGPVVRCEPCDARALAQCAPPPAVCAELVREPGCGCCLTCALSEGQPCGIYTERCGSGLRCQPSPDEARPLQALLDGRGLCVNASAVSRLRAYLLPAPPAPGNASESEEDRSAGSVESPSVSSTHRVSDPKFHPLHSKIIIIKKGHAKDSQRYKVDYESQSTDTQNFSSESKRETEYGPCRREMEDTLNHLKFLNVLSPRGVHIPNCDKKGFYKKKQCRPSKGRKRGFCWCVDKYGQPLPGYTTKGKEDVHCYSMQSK
Method: as §1, §2

[2] = target: T2, IGF-I V70A on phage (single mutant of G1S-A70V, gene III fusion) (human; bacteriophage M13); test: competitive phage ELISA, soluble vs coated IGFBP-1
T2 construct: monovalent on M13 phage; not shown: M13 gene III fragment (residues 249-406) and the junction after residue 70
Method: as §1, §2

[3] = target: B1; test: competitive phage ELISA, soluble vs coated IGFBP-1
Method: as §1, §2

[4] = target: T3, IGF-I L5A on phage (G1S-A70V background, gene III fusion) (human; bacteriophage M13); test: competitive phage ELISA, soluble vs coated IGFBP-1
T3 construct: monovalent on M13 phage; not shown: M13 gene III fragment (residues 249-406) and the junction after residue 70
T3 chain: B1 chain with A3E, L5A
Method: as §1, §2

[5] = target: T4, IGF-I T4A on phage (G1S-A70V background, gene III fusion) (human; bacteriophage M13); test: competitive phage ELISA, soluble vs coated IGFBP-1
T4 construct: monovalent on M13 phage; not shown: M13 gene III fragment (residues 249-406) and the junction after residue 70
T4 chain: B1 chain with A3E, T4A
Method: as §1, §2

[6] = target: T5, IGF-I S69A on phage (G1S-A70V background, gene III fusion) (human; bacteriophage M13); test: competitive phage ELISA, soluble vs coated IGFBP-1
T5 construct: monovalent on M13 phage; not shown: M13 gene III fragment (residues 249-406) and the junction after residue 70
Method: as §1, §2

[7] = target: T6, IGF-I S1G on phage (single mutant of G1S-A70V, gene III fusion) (human; bacteriophage M13, UniProt P05019 49-117); test: competitive phage ELISA, soluble vs coated IGFBP-1
T6 construct: monovalent on M13 phage; not shown: M13 gene III fragment (residues 249-406) and the junction after residue 70
Method: as §1, §2

[8] = target: T7, IGF-I F49A on phage (G1S-A70V background, gene III fusion) (human; bacteriophage M13); test: phage ELISA on coated IGFBP-3, soluble IGFBP-1 as competitor (FIG. 3A); details: remark: other sources report otherwise
T7 chain: B1 chain with A3E, F49A

Row | Binder | binding result (human IGFBP-1) | binding result [1] | IC50 [2] [nM] | IC50 [3] [nM] | IC50 [4] [nM] | IC50 [5] [nM] | IC50 [6] [nM] | IC50 [7] [nM] | shift of the binding curve against G1S-A70V phage [8] [fold]
1 | B1 | binds | binds |  |  |  |  |  |  | 
2 | B2 |  |  | 19.1 | 278 | 55.3 | 19.4 | 12.8 | 11.2 | > 100

From patent US6509443
